Source: US9340584 (dated 2016)

Molecular target: human serum albumin (human, UniProt P02768 25-609)
Assay: SPR

Row | Binder | Kd [nM]
1 | mutant TRX protein E2 (HSA binder, purified) (designed binder) MVKQIESKTAFQEALDAAGDKLVVVDFSATKNEKRDVAEWSGPSKMIKPFFHSLSEKYSNVIFLEVDVDDAQDVASEAFGFFGFPVLPTFQFFKKGQKVGEFSGANKEKLEATINELV | 830
2 | RLuc-E2 (other) MVKQIESKTAFQEALDAAGDKLVVVDFSATKNEKRDVAEWSGPSKMIKPFFHSLSEKYSNVIFLEVDVDDAQDVASEAFGFFGFPVLPTFQFFKKGQKVGEFSGANKEKLEATINELV | 1300
3 | RLuc-H6 (other) MVKQIESKTAFQEALDAAGDKLVVVDFSATDRKPWKTRGWSGPSKMIKPFFHSLSEKYSNVIFLEVDVDDAQDVASEAFGLFSFPLLPTFQFFKKGQKVGEFSGANKEKLEATINELV | 2460
4 | mutant TRX protein H6 (HSA binder, purified) (designed binder) MVKQIESKTAFQEALDAAGDKLVVVDFSATDRKPWKTRGWSGPSKMIKPFFHSLSEKYSNVIFLEVDVDDAQDVASEAFGLFSFPLLPTFQFFKKGQKVGEFSGANKEKLEATINELV | 870
5 | RLuc-F3 (other) MVKQIESKTAFQEALDAAGDKLVVVDFSATGGTPGRRNRWSGPSKMIKPFFHSLSEKYSNVIFLEVDVDDAQDVASEAFCEFCFPFLPTFQFFKKGQKVGEFSGANKEKLEATINELV | 640
6 | mutant TRX protein F3 (HSA binder, purified) (designed binder) MVKQIESKTAFQEALDAAGDKLVVVDFSATGGTPGRRNRWSGPSKMIKPFFHSLSEKYSNVIFLEVDVDDAQDVASEAFCEFCFPFLPTFQFFKKGQKVGEFSGANKEKLEATINELV | 520
